Results published in the supplement of paper PMC10567573.

B1: BTBD1 (parent)
chain: YGSIHGPTDYQVNIQIIEYEKKQT
B2: KLHL20 (parent)
chain: YQDMIYAVGGRDDTTELSSAERYN

Variants of: B1
Assay: protein stability index of a GFP-peptide fusion (GPS, HEK-293T) (PSI 1-6); higher = more stable
Details: c terminus: a fixed tail appended
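Also: lentivirally expressed fusions sorted by FACS into six bins by GFP to DsRed ratio, PSI derived from sequencing read proportions per bin multiplied by bin number.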

Protein stability index: each site, then its substitutions
Y1: W 2.67; H 3.45; G 3.66; S 3.79; V 3.84; C 3.4; Q 3.8; E 3.93; R 3.44; M 3.73; A 3.35; T 3.83; L 2.94; D 3.93; I 2.92; K 3.15; F 2.52; N 3.32; P 3.67
I4: K 2.24; D 4.08; F 2.21; N 2.93; G 2.16; A 2.95; M 2.41; E 3.45; L 2.94; C 2.32; H 2.79
S3: V 2.57; T 3.08; D 3.13; I 2.24; G 2.88; E 3; L 2.94; H 3.09; R 2.88; Y 2.15; C 2.06; N 1.6; P 3.06; W 2.17; Q 3.33; F 2.64; A 2.85; K 3.17; M 2.87
G2: P 2.81; S 2.45; C 2.56; H 2.36; M 2.83; Y 2.03; N 3.28; W 2.5; V 3.34; L 2.08; R 2.5; I 1.7; D 3.7; A 1.62; E 3.59; F 2.48; T 1.9; K 3.06; Q 2.59

Variants of: B2
Assay: as above
Details: c terminus: a fixed tail appended

Protein stability index of substitutions, site by site:
L17: A 2.44; V 2; S 2.06; Y 2.03; H 2.32; G 2.82; P 2.49; Q 2.24; E 2.58; D 2.12; F 2.14; K 2.41; C 2.52; M 2.35; W 2.45; R 2.19; N 2.38; T 2.89; I 2.33
T14: L 2.48; N 2.36; S 2.48; F 2.18; Q 2.35; Y 2.1; P 2.89; I 2.09; E 2.78; R 2.13; K 2.17; A 1.82; W 1.56; C 2.47; V 2.25; D 2.79; H 1.98; G 2.47; M 2.01
E21: R 1.75; A 2; F 2.28; I 1.95; S 1.92; V 2.09; P 2.55; T 2.11; D 2.29; C 2.23; K 2.37; L 1.95; G 1.94; H 2.04; Q 1.95; M 2.75; N 1.89; Y 1.69; W 1.58
Y23: W 3; E 2.77; S 2.54; H 2.64; N 2.59; G 2.18; K 2.74; I 1.93; L 2.25; M 2.29; Q 3.05; A 1.82; R 2.77; T 2.37; F 2.13; V 2.93; C 2.32; P 2.72; D 2.98
D12: C 2.01; G 2.47; R 1.78; W 1.8; Q 2.09; P 2.34; K 2.1; L 2.21; F 1.45; N 2.43; A 2.33; Y 1.9; S 2.32; H 2.17; M 1.76; T 1.58; I 1.6; V 1.53; E 2.74
R22: K 2.08; N 1.92; L 2.15; S 2.48; M 2.03; Q 2.77; W 2.56; I 2.16; T 2.18; D 2.49; Y 2.63; E 2.53; C 2.52; P 2.69; A 2.45; F 2.48; H 2.38; V 2.52; G 2.87
S19: Y 1.8; K 2.34; M 2.01; L 2.02; P 2.66; I 2.01; R 2.53; Q 2.25; T 2.54; F 2.31; E 2.45; N 2.11; G 2.32; A 2.87; V 1.99; H 2.33; W 1.99; D 2.43; C 2.16
N24: F 2.41; T 1.85; V 1.75; P 2.42; G 2.99; L 2.69; E 2.66; A 1.75; W 1.93; D 3.62; M 2.08; I 2.02; K 2.16; S 2.24; H 2.44; Y 2.31; C 2.02; Q 2.48; R 2.7
D13: W 1.77; C 1.8; T 2.18; I 2.26; H 1.98; Y 1.97; G 2; L 2.06; S 2.18; V 2.49; P 2.03; K 2.23; F 2.08; A 1.66; Q 2.11; M 1.34; N 2.01; R 1.75; E 2.36
S18: I 2.12; T 2.1; C 2.07; R 1.99; W 2.27; V 2.32; P 2.1; Q 2.22; K 2.25; D 2.43; N 2.66; Y 2.22; G 2.5; E 2.02; L 2.76; A 2.03; M 2.07; H 2.9; F 2.63
A20: L 1.82; R 2.76; G 2.29; Y 1.78; Q 2.91; W 1.66; D 2.79; C 2.15; K 2.03; T 2.21; N 2.82; S 1.98; M 2.38; E 3.06; I 2.05; F 2.04; H 2.74; V 2.41; P 2.05
T15: S 2.46; M 1.92; W 1.8; C 2.49; F 2.38; P 2.17; H 2.19; K 2.13; V 2.08; A 2.4; Y 1.8; G 2.21; L 2.58; D 2.49; Q 3.13; I 2.09; R 2.08; E 2.44; N 2.33
E16: V 2.78; D 2.34; N 2.38; T 2.17; M 2.08; R 2.51; F 1.75; W 2.23; A 1.95; P 2.05; C 1.5; K 1.85; S 1.91; H 2.5; L 2.67; G 2.28; Y 1.69; Q 2.36; I 2.07
R11: Q 2.75; G 2.33; C 2.69; V 2.16; W 2.08; Y 1.91; F 2.08; D 3.01; N 2.49; I 2.44; P 2.57; H 2.1; M 2.32; L 1.99; A 2.54; E 3; T 2.23; K 2.55; S 2.9
